± gives the standard deviation of the averaged measurements.
Key:
MCF7 = experiment: percentage of EdU-negative (G0-arrested) nuclei per well, 72 h; higher = more G0 arrest; details: reference: sequence is the full UniProt precursor, the tested protein was the secreted form or ectodomain
hTERT-HMEC = experiment: as above; details: reference: sequence is the full UniProt precursor, the tested protein was the secreted form or ectodomain
[1] = protein concentration 0.01207 µM
[2] = protein concentration 0.1207 µM
[3] = protein concentration 0.0111429 µM
[4] = protein concentration 0.111429 µM
[5] = protein concentration 0.0076025 µM
[6] = protein concentration 0.076025 µM
[7] = protein concentration 0.03125 µM
[8] = protein concentration 0.3125 µM
[9] = protein concentration 0.0225 µM
[10] = protein concentration 0.0231125 µM
[11] = protein concentration 0.231125 µM
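Also: secreted proteins added to cultured cells, EdU pulse at the end, nuclei found by Hoechst imaging, EdU status from nuclear versus surrounding ring intensity ratio, PBS as neutral control.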

## MALFVRLLALALALALGPAATLAGPAKSPYQLVLQHSRLRGRQHGPNVCAVQKVIGTNRKYFTNCKQWYQRKICGKSTVISYECCPGYEKVPGEKGCPAALPLSNLYETLGVVGSTTTQLYTDRTEKLRPEMEGPGSFTIFAPSNEAWASLPAEVLDSLVSNVNIELLNALRYHMVGRRVLTDELKHGMTLTSMYQNSNIQIHHYPNGIVTVNCARLLKADHHATNGVVHLIDKVISTITNNIQQIIEIEDTFETLRAAVAASGLNTMLEGNGQYTLLAPTNEAFEKIPSETLNRILGDPEALRDLLNNHILKSAMCAEAIVAGLSVETLEGTTLEVGCSGDMLTINGKAIISNKDILATNGVIHYIDELLIPDSAKTLFELAAESDVSTAIDLFRQAGLGNHLSGSERLTLLAPLNSVFKDGTPPIDAHTRNLLRNHIIKDQLASKYLYHGQTLETLGGKKLRVFVYRNSLCIENSCIAAHDKRGRYGTLFTMDRVLTPPMGTVMDVLKGDNRFSMLVAAIQSAGLTETLNREGVYTVFAPTNEAFRALPPRERSRLLGDAKELANILKYHIGDEILVSGGIGALVRLKSLQGDKLEVSLKNNVVSVNKEPVAEPDIMATNGVVHVITNVLQPPANRPQERGDELADSALEIFKQASAFSRASQRSVRLAPVYQKLLERMKH
MCF7; [1]
  percentage of EdU-negative: 25.4 ± 0.46%
MCF7; [2]
  percentage of EdU-negative: 28.3 ± 0.63%
hTERT-HMEC; [1]
  percentage of EdU-negative: 5.243 ± 0.015%
hTERT-HMEC; [2]
  percentage of EdU-negative: 4.82 ± 0.7%

## MALGLLIAVPLLLQAAPRGAAHYEMMGTCRMICDPYTAAPGGEPPGAKAQPPGPSTAALEVMQDLSANPPPPFIQGPKGDPGRPGKPGPRGPPGEPGPPGPRGPPGEKGDSGRPGLPGLQLTAGTASGVGVVGGGAGVGGDSEGEVTSALSATFSGPKIAFYVGLKSPHEGYEVLKFDDVVTNLGNHYDPTTGKFSCQVRGIYFFTYHILMRGGDGTSMWADLCKNGQVRASAIAQDADQNYDYASNSVVLHLDSGDEVYVKLDGGKAHGGNNNKYSTFSGFLLYPD [Q7Z5L3]
MCF7; [3]
  percentage of EdU-negative: 22.8 ± 1.6%
MCF7; [4]
  percentage of EdU-negative: 30 ± 0.7%
hTERT-HMEC; [3]
  percentage of EdU-negative: 5.39 ± 0.86%
hTERT-HMEC; [4]
  percentage of EdU-negative: 5.7 ± 1.1%

## MALGQKLFITMSRGAGRLQGTLWALVFLGILVGMVVPSPAGTRANNTLLDSRGWGTLLSRSRAGLAGEIAGVNWESGYLVGIKRQRRLYCNVGIGFHLQVLPDGRISGTHEENPYSLLEISTVERGVVSLFGVRSALFVAMNSKGRLYATPSFQEECKFRETLLPNNYNAYESDLYQGTYIALSKYGRVKRGSKVSPIMTVTHFLPRI
MCF7; [5]
  percentage of EdU-negative: 25.3 ± 0.82%
MCF7; [6]
  percentage of EdU-negative: 25 ± 2.6%
hTERT-HMEC; [5]
  percentage of EdU-negative: 4.73 ± 0.69%
hTERT-HMEC; [6]
  percentage of EdU-negative: 5.27 ± 0.17%

## MALGVPISVYLLFNAMTALTEEAAVTVTPPITAQQGNWTVNKTEADNIEGPIALKFSHLCLEDHNSYCINGACAFHHELEKAICRCFTGYTGERCEHLTLTSYAVDSYEKYIAIGIGVGLLLSGFLVIFYCYIRKRCLKLKSPYNVCSGERRPL
MCF7; [7]
  percentage of EdU-negative: 26.2 ± 0.87%
MCF7; [8]
  percentage of EdU-negative: 27 ± 2.6%
hTERT-HMEC; [7]
  percentage of EdU-negative: 5.25 ± 0.34%
hTERT-HMEC; [8]
  percentage of EdU-negative: 5.12 ± 0.77%

## MALHIHEACILLLVIPGLVTSAAISHEDYPADEGDQISSNDNLIFDDYRGKGCVDDSGFVYKLGERFFPGHSNCPCVCALDGPVCDQPECPKIHPKCTKVEHNGCCPECKEVKNFCEYHGKNYKILEEFKPSPCEWCRCEPSNEVHCVVADCAVPECVNPVYEPEQCCPVCKNGPNCFAGTTIIPAGIEVKVDECNICHCHNGDWWKPAQCSKRECQGKQTV [B2RUY7]
MCF7; [9]
  percentage of EdU-negative: 26.9 ± 1.9%
MCF7; protein concentration 0.225 µM
  percentage of EdU-negative: 25.9 ± 1.7%
hTERT-HMEC; [9]
  percentage of EdU-negative: 5.12 ± 0.14%
hTERT-HMEC; protein concentration 0.225 µM
  percentage of EdU-negative: 5.63 ± 0.95%

## MALLFSLILAICTRPGFLASPSGVRLVGGLHRCEGRVEVEQKGQWGTVCDDGWDIKDVAVLCRELGCGAASGTPSGILYEPPAEKEQKVLIQSVSCTGTEDTLAQCEQEEVYDCSHDEDAGASCENPESSFSPVPEGVRLADGPGHCKGRVEVKHQNQWYTVCQTGWSLRAAKVVCRQLGCGRAVLTQKRCNKHAYGRKPIWLSQMSCSGREATLQDCPSGPWGKNTCNHDEDTWVECEDPFDLRLVGGDNLCSGRLEVLHKGVWGSVCDDNWGEKEDQVVCKQLGCGKSLSPSFRDRKCYGPGVGRIWLDNVRCSGEEQSLEQCQHRFWGFHDCTHQEDVAVICSG
MCF7; [10]
  percentage of EdU-negative: 24.9 ± 0.77%
MCF7; [11]
  percentage of EdU-negative: 27.1 ± 0.67%
hTERT-HMEC; [10]
  percentage of EdU-negative: 5.21 ± 0.98%
hTERT-HMEC; [11]
  percentage of EdU-negative: 5.51 ± 0.056%

— the supplement of paper PMC11316812
